Laboratory results taken from the Human Domainome abundance scans (Beltran et al. 2025).

B1: Homeobox protein cut-like 2, residues 895 to 963; numbered along this chain, O14529 (parent)
chain: EVDTLELTRQVKEKLAKNGICQRIFGEKVLGLSQGSVSDMLSRPKPWSKLTQKGREPFIRMQLWLSDQL
B2: POU domain, class 6, transcription factor 2, residues 609 to 663; numbered along this chain, P78424 (parent)
chain: KRRTSFTPQALEILNAHFEKNTHPSGQEMTEIAEKLNYDREVVRVWFCNKRQALK

Variants of: B1
Test: abundance fitness (aPCA) (normalised: wild type 0, dead -1); higher = more abundant; growth selection in yeast, the domain comes from the species named
Conditions: Homo sapiens

Abundance fitness of substitutions, site by site:
S66: Y -0.001, K 0.109, C -0.048, I -0.039, D 0.094, N 0.189, F -0.2, T -0.008, R 0.028, Q 0.002, H 0.005, E -0.069, M -0.085, V -0.066, A -0.045, L -0.104, G 0.048, P -0.998, W -0.08
L65: D -0.841, W -0.44, K -0.726, S -0.962, G -0.952, C -0.511, H -0.696, P -1.03, Y -0.56, M -0.294, R -0.782, T -0.975, E -1.28, A -0.694, F -0.193, Q -0.926, I -0.278, N -0.973
L69: N -0.058, Q -0.092, G -0.056, E -0.068, I -0.221, H -0.182, M -0.007, Y -0.096, C -0.054, R -0.08, T -0.199, S -0.052, P -0.163, F -0.083, W -0.137, A -0.164, D -0.188, K -0.041
L63: Q 0.078, F -0.274, C -0.127, I -0.213, R 0.096, A 0.058, V -0.103, E 0.037, W -0.271, S 0.069, T -0.003, P -0.728, Y -0.115, K 0.113, G -0.19, M 0.041, D 0.07, H 0.012, N -0.006
Q68: M -0.022, N -0.068, E -0.014, Y -0.105, G -0.13, S -0.097, K 0.062, V -0.072, I -0.142, W -0.087, R -0.057, L -0.052, F -0.099
W64: R -0.945, N -0.678, S -1.3, C -0.946, G -0.942, M -1.06, F -0.222, Q -0.907, K -0.899, D -1.06, P -0.806, L -0.822, I -1.19, T -1.31, V -1.15, H -1.08, Y -0.372, A -1.17
D67: R -0.008, E -0.017, I -0.603, L -0.389, Y -0.321, Q 0.057, H -0.296, V -0.549, G 0.009, N -0.07, C -0.576, A -0.207, M -0.25, F -0.64, W -0.661, S -0.082, K -0.037, P -0.209

Variants of: B2
Test: as above
Conditions: Homo sapiens

Abundance fitness: each site, then its substitutions
F6: T -0.134, H -0.272, C -0.15, E -0.191, Y -0.187, Q -0.28, D -0.246, P 0.039, A -0.354, S -0.415, R -0.423, G -0.326, L 0.135, W -0.025, I 0.092, N -0.267, M -0.042
S5: N -0.075, G 0.041, Y -0.147, R -0.113, C -0.039, P -0.032, T 0.12, V 0.015, I 0.079, W -0.11, E 0.083, Q 0.221, A 0.019, F -0.031, K 0.035, H -0.245, M -0.127, D -0.063, L -0.06
L11: P -1.01, R -0.222, A -0.279, G -0.477, Q -0.435, E -0.002, H -0.482, Y -0.339, S -0.283, F -0.498, D -0.622, M -0.092, V 0.053, C -0.409
P8: M 0.037, Q -0.365, R -0.148, I -0.189, H -0.177, Y -0.572, D 0.038, L -0.057, V 0.004, T 0.477, A 0.022, F -0.147, C -0.023, N -0.072, W -0.394, K -0.138, S 0.05
R3: S 0.02, P 0.004, N 0.208, V -0.001, E 0.043, G -0.035, D 0.054, K -0.009, I 0.136, Q -0.073, L 0.057, C -0.236, A -0.136, T -0.134, F 0.053, M 0.01, W -0.265
K1: I 0.111, N 0.043, L -0.465, A -0.19, T -0.077, S -0.275, W -0.267, D -0.161, E -0.632, Y -0.41, V -0.776, H -0.309, G 0.157, R -0.269
T7: G -0.007, W -0.409, F -0.867, R -0.321, Y -0.637, E 0.05, L -0.288, N -0.303, C -0.079, A -0.2, S -0.042, H -0.226, D -0.402, V -0.403, M -0.395, K -0.565, P 0.04, I -0.615
Q9: S -0.207, P -0.028, G -0.06, I -0.057, M -0.041, T -0.106, Y -0.088, L -0.253, K -0.037, E -0.432, W -0.184, N -0.141, D -0.12, H -0.049
L14: H -0.788, I -0.898, E -1.07, A -0.969, G -0.919, K -0.874, F -0.877, D -0.972, C -0.734
I13: Q -0.132, A -0.01, M -0.218, S -0.279, H -0.172, Y 0.002, E -0.251, T -0.003, L -0.017, F -0.113, P -0.98, C -0.113, W -0.219, G -0.385
R2: H -0.144, Q 0.026, F -0.056, M 0.064, P -0.118, C -0.345, N 0.095, G -0.034, A 0.038, S 0.106, I -0.059, E 0.108, T 0.041, W -0.334
T4: A -0.09, E 0.045, D -0.083, F -0.333, S -0.001, C -0.058, Y -0.15, G -0.089, H -0.028, K -0.123, V -0.106, M -0.148, Q -0.203, I -0.364, L -0.063, R -0.204
A10: Y -0.76, R -0.904, M -0.206, K -0.587, N -0.106, F -0.538, G -0.087, S -0.262, C -0.154, W -0.87, E 0.062, V -0.227, Q -0.107, D -0.015, L -0.51
E12: D -0.002, R -0.107, K -0.695, S -0.009, G -0.105, W -0.233, V -0.331, Q -0.298, M -0.222, C -0.261, A -0.401, P -0.724, L -0.403
